Results on five substances are retold here after PMC3852207.

The target of assay [1] is Q61L Cdc42·[3H]GTP (UniProt P60953). Briefly: scintillation proximity assay (competition); competitor titrated into 30 nM [3H]GTP·Rac1 or [3H]GTP·Cdc42 and 30 nM GST-p50 RhoGAP immobilised on fluoromicrospheres via an anti-GST antibody; partial competition model for RLIP76 GAP and didomain, full competition for GAP insert and free p50 RhoGAP. A general note: Scintillation proximity formats need no separation of bound from free tracer.

For assay [2], the target named is Q61L Rac1·[3H]GTP (UniProt P63000). The description is as above.
The target of assay [3] is GST-p50 RhoGAP. As to the kind of experiment: scintillation proximity assay (direct); GST-p50 RhoGAP on SPA beads; [3H]GTP·Cdc42 or [3H]GTP·Rac1 in solution; values used as fixed Kd in the competition fits.
Assay [4] addresses Cdc42 (Homo sapiens) (UniProt P60953). The following applies: cited from earlier work.
The target of assay [5] is Rac1 (Homo sapiens) (UniProt P63000). The conditions noted are these: cited from earlier work.

Q61L Cdc42·[3H]GTP, sequence (P60953 whole entry Q61L): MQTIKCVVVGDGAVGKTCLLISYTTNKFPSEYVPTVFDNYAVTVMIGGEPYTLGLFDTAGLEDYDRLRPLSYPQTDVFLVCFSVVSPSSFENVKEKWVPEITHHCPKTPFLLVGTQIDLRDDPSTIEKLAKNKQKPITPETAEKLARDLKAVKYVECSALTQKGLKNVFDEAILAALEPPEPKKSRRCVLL
Cdc42 (Homo sapiens), sequence (P60953 1-188): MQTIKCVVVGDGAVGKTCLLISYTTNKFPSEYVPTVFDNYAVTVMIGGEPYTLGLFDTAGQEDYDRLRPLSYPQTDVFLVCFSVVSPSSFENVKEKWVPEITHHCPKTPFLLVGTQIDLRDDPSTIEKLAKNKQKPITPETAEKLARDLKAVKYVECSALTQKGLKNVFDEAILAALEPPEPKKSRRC

With “His-RLIP76 GAP domain (residues 184-380) (from UniProt Q15311 184-380) (domain or fragment)”, the figures for the Kd in assay [1] and in assay [2] were 6190 nM and 1680 nM, respectively.

“His-RLIP76 GAP-GBD didomain (residues 184-446) (from UniProt Q15311 184-446) (domain or fragment)”: the Kd (in general, the concentration at which binding is half-saturated) in assay [1] came out at 5590 nM; in assay [2] it was 2340 nM.

In the case of “Q61L Cdc42·[3H]GTP (from UniProt P60953 1-191) (natural protein)”, the Kd in assay [3] came to 80 nM.

As to p50 RhoGAP (from UniProt Q07960), the Kd in assay [4] is 24 nM; in assay [5], 18 nM.

In the case of “untagged p50 RhoGAP (domain or fragment)”, the Kd in assay [1] worked out at 247 nM; in assay [2] it was 150 nM.
